This is an account of results in article PMC2723102 (2009).

Where no end group is shown, it is not given here. [ ]: non-standard residue; d: D form. pY = N[C@@H](Cc1ccc(OP(=O)(O)O)cc1)C(=O)O; pT = C[C@@H](OP(=O)(O)O)[C@H](N)C(=O)O

Holding throughout (test): SPR
On the technique in general: SPR reads the build-up and loss of mass on a sensor chip optically.

One assay has as its target T1, GST-X11β (domain).
T1 chain: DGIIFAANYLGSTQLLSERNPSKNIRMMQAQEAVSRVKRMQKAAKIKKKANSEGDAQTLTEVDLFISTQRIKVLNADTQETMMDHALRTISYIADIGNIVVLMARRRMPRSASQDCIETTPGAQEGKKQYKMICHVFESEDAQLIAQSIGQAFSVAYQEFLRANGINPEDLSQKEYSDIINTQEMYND

The target of assay [1] is GST-Grb2 domain (GST-SH2 recombinant protein).
Sequence of GST-Grb2 domain (GST-SH2 recombinant protein) (chain, as listed by the source): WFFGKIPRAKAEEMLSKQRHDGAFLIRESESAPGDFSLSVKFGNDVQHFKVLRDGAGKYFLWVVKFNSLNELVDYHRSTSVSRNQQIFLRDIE
The target of assay [2] is T2, GST-NUMB-p71 (region with the PTB domain).
T2 chain: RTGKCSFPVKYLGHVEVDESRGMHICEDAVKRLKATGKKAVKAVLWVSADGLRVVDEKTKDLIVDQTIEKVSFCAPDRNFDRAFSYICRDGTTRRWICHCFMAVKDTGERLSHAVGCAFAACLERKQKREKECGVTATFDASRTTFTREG

Regarding VMLKKKQYTSIHHGVVEVDAAV[pT]PEERHLSKMQQNGYENPTYKFFEQMQN (also: strep-tag, position not given here) [strep-tag AID peptide phosphorylated on Thr-668], in the assay with GST-X11β (domain), the Kd (in general, the concentration at which binding is half-saturated) was found to be 33.5 nM. On to VMLKKKQYTSIHHGVVEVDAAV[pT]PEERHLSKMQQNG[pY]ENPTYKFFEQMQN (also: strep-tag, place not given here) [strep-tag AID peptide phosphorylated on Thr-668 and Tyr-682], for which the Kd in the assay with GST-X11β (domain) was determined as 13.1 nM; in assay [1], 0.413 nM. As to VMLKKKQYTSIHHGVVEVDAAVTPEERHLSKMQQNG[pY]ENPTYKFFEQMQN (also: strep-tag, place not given here) [strep-tag AID peptide phosphorylated on Tyr-682], in assay [1], the Kd came out at 2.57 nM. For the molecule VMLKKKQYTSIHHGVVEVDAAVTPEERHLSKMQQNGYENPTYKFFEQMQN (also: strep-tag, position not given here) [strep-tag AID peptide (APP intracellular domain, last 50 amino acids of APP), non-phosphorylated], the Kd is 8.48 nM with GST-X11β (domain) and 105 nM in assay [2].
